B1: FORCSV-10: forskolin-inducible promoter, 5×cAMPRE and 3×AP1(2) TFBS with SV40-MP, SEQ ID NO: 6 (nucleic acid)
DNA: TGACGTCACGATTACCATTGACGTCACGATTACCATTGACGTCACGATTACCATTGACGTCACGATTACCATTGACGTCAGCGATTAAGATGACTCAGCGATTAAGATGACTCAGCGATTAAGATGACTCAGCGATTAAGATGACTCACTAGCCCGGGCTCGAGATCTGCGATCTGCATCTCAATTAGTCAGCAACCATAGTCCCGCCCCTAACTCCGCCCATCCCGCCCCTAACTCCGCCCAGTTCCGCCCATTCTCCGCCCCATCGCTGACTAATTTTTTTTATTTATGCAGAGGCCGAGGCCGCCTCGGCCTCTGAGCTATTCCAGAAGTAGTGAGGAGGCTTTTTTGGAGGCCTAGGCTTTTGCAAA
B2: SYNP-HYP-001: synthetic hypoxia-inducible promoter, four HRE2 and a CMV minimal promoter, SEQ ID NO: 3 (nucleic acid)
DNA: CTGCACGTACTGCACGTACTGCACGTACTGCACGTATGGGTACCGTCGACGATATCGGATCCAGGTCTATATAAGCAGAGCTCGTTTAGTGAACCGTCAGATCGCCTAGATACGCCATCCACGCTGTTTTGACCTCCATAGAAGATCGCCACC
B3: FORN-pJB42: forskolin responsive enhancer element in combination with pJB42 minimal promoter, SEQ ID NO: 211 (nucleic acid)
DNA: AATAAAATATCTTTATTTTCATTACATCTGTGTGTTGGTTTTTTGTGTGCCATTGACGTCACGATTTGACGTCAACCATTGACGTCACGATTTGACGTCAACCATTGACGTCACGATTTGACGTCACGATTTGACGTCAACCATTGACTCACGATTTGACTCAACCATTGACTCACGATTTGACTCAACCATTGACTCACGATTTGACTCACGATTCTGACAAATTCAGTATAAAAGCTTGGGGCTGGGGCCGAGCACTGGGGACTTTGAGGGTGGCCAGGCCAGCGTAGGAGGCCAGCGTAGGATCCTGCTGGGAGCGGGGAACTGAGGGAAGCGACGCCGAGAAAGCAGGCGTACCACGGAGGGAGAGAAAAGCTCCGGAAGCCCAGCAGCGGCCACC
B4: FMP-02: forskolin-inducible promoter, 8×AP1(1) TFBS with MinTK, SEQ ID NO: 8 (nucleic acid)
DNA: TGAGTCAGATGATGCGTAGCTAGTAGTTGAGTCAGATGATGCGTAGCTAGTAGTTGAGTCAGATGATGCGTAGCTAGTAGTTGAGTCAGATGATGCGTAGCTAGTAGTTGAGTCAGATGATGCGTAGCTAGTAGTTGAGTCAGATGATGCGTAGCTAGTAGTTGAGTCAGATGATGCGTAGCTAGTAGTTGAGTCAGTAGTCGTATGCTGATGCGCAGTTAGCGTAGCTGAGGTACCGTCGACGATATCGGATCCTTCGCATATTAAGGTGACGCGTGTGGCCTCGAACACCGAGCGACCCTGCAGCGACCCGCTTAA
B5: TATA-m6a: forskolin responsive enhancer element in combination with TATA-m6A minimal promoter, SEQ ID NO: 209 (nucleic acid)
DNA: AATAAAATATCTTTATTTTCATTACATCTGTGTGTTGGTTTTTTGTGTGCCATTGACGTCACGATTTGACGTCAACCATTGACGTCACGATTTGACGTCAACCATTGACGTCACGATTTGACGTCACGATTTGACGTCAACCATTGACTCACGATTTGACTCAACCATTGACTCACGATTTGACTCAACCATTGACTCACGATTTGACTCACGATTTATAAAAGGCAGAGCTCGTTTAGTGAACCGAAGCTTGGACTAAAGCGGACTTGTCTCGAG

Columns and labels:
Type in all cases: cell-based, human
HEK293-F cells [1] = assay: Luciferase expression from forskolin-inducible promoters in HEK293-F cells after induction with forskolin; settings: 20 μM forskolin
Procedure: The forskolin-inducible promoters FORCSV-10, FOR-CMV-009, FMP-02 and FLP-01 were used to drive expression of luciferase in a PM-RQ vector in the suspension cell line HEK293-F. The tested promoters were synthesized directly upstream of the ATG of PM-RQ plasmid and the suspension cell lines were transiently transfected with the PM-RQ plasmid.
(§1) 40 ml of cells were grown in a 250 ml vented Erlenmeyer flask (Sigma-Aldrich CLS431144) at 37° C., 20% O2, 8% CO2 with agitation at 100 rpm. Cells were seeded as described in the manufacturer's instructions (300,000 cells/ml). HEK293-F were obtained from Thermofisher, R79007.
(§2) One day before transfection, the cells were counted using a haemocytometer and split to 500,000 cells/ml.
(§3) On the day of transfection, the cells are seeded to 1,000,000 cells/ml in 500 μl of appropriate medium (Freestyle 293 expression medium, 12338002) in a 24 well plate. 0.625 μg of DNA per well was then added to 10 μl of OptiMem medium (Thermofisher; 11058021) and incubated for 5 minutes at room temperature.
Concurrently, 0.625 μl of Max reagent (Thermofisher, 16447100) was made up to 10 μl by addition of OptiMem and incubated for 5 minutes at room temperature. […]
24 hours after transfection, the promoters were induced by addition of 20 μM forskolin and luciferase activity was measured 0, 3, 5 and 24 hours after induction. Luciferase activity was measured as previously described.

HEK293-F cells [2] = assay: Luciferase expression from hypoxia-inducible promoters in transiently transfected HEK293-F cells under hypoxia; settings: hypoxia 5% oxygen, 3, 5 and 24 hrs
Procedure: as §1, §2
as §3, with “temperature. […]” for “temperature.”
After transfection the cells were incubated for 24 hrs in normoxia conditions (20% oxygen) before being switched to a gas mix of 5% oxygen, 10% carbon dioxide and 85% nitrogen (hypoxia). […] Induction of the promoters was assessed by using luciferase activity after 3, 5 and 24 hrs in hypoxia.
Luciferase activity was measured using LARII (Dual Luciferase Reporter 1000 assay system, Promega, E1980).
Media was removed from the cells at the respective time point (0, 3, 5, 24 hrs after induction). […] 10 μl of supernatant was pipetted into white 96-well plate and luminescence measured by addition of 50 μl of LARII substrate. […]

Pro10 cells [3] = assay: Activation of FORN-pJB42 driving Rep78 by adenovirus helper functions; settings: with and without adenovirus helper functions, forskolin or DMSO
Procedure: The ability for the aforementioned helper functions to induce the activity of the best performing promoter FORN-pJB42 was next assessed. Transfections were carried out as previously described. Conditions were as follows: FORN-pJB42 controlling expression of Rep78 was transfected with and without the adenovirus helper functions. In addition, the transfected cells were also treated with forskolin at […] or vehicle DMSO control. Analysis of activity was as described in the previous section. […] However, it should be noted that full activity is not obtained until both the adenovirus helper functions and 10 μM forskolin were present.

Pro10 cells [4] = assay: Rep78 expression (western blot) from new forskolin promoter designs in Pro10 cells; settings: Pro10, 10 uM forskolin or DMSO, 24 hrs
Procedure: Each of the promoters were tested for their ability to induce expression of the Rep78 protein. To eliminate the expression of Rep52 the ATG start codon in Rep52 was mutated to an AGG. All constructs were synthesized by Genewiz, see sequence files for full plasmid.
Pro10 cells were cultured and transfected using lipofectamine 2000 as previously described herein above. 24 hrs after transfection 10 uM forskolin was added to the cells. Control wells were given DMSO as forskolin was dissolved in this carrier. After another 24 hrs the cells were then lysed and lysates were analyzed for Rep78 expression via western blot (previously described). The best performing promoters were the TATA-m6a, YB and pJB42 (FIG. 29). […] The rest of the promoters have some level of background which indicates leaky expression.

| Molecule | promoter strength relative to the other promoters (HEK293-F cells [1]) | Rep78 expression (western blot) (Pro10 cells [4]) | further results |
| --- | --- | --- | --- |
| B1 | strongest |  |  |
| B2 |  |  | promoter activity (luciferase) relative to the other promoters (HEK293-F cells [2]): stronger |
| B3 |  | no Rep78 expression in the absence of forskolin but strong expression on the presence | activation of the promoter driving Rep78 (Pro10 cells [3]): activated by the presence of the helper functions, even in the absence of forskolin |
| B4 | weakest |  |  |
| B5 |  | no Rep78 expression in the absence of forskolin but strong expression on the presence |  |
